Measurements as given in patent publication US20220251206A1 (Bristol-Myers Squibb, published 2022).
Changes are numbered by the printed parent chain. Blank lines part the entries; values can stand above or below the binder they belong to.

Biological target: T1, CTLA4 (UniProt P16410 36-223, limits assumed)
T1 sequence (looked up): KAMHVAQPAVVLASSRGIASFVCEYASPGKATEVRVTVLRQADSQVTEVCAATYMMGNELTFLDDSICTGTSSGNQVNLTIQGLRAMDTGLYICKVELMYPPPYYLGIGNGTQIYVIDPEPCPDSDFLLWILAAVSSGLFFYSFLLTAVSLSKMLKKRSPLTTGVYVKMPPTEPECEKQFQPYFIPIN
Assay: cell-based or functional assay

IL-2 secretion by SEB-stimulated PBMC (HTRF): ~3 fold
B1: de-prodrugged Antibody A1 (antibody, human IgG1, kappa, V domains shown)
VH: QVQLVESGGGVVQPGRSLRLSCAASGFTFSSYTMHWVRQAPGKGLEWVTFISYDGNCKYYADSVKGRFTISRDNSKNTLYLQMNSLRAEDTAIYYCARTGWLGPFDYWGQGTLVTVSS
VL: not shown
modifications: succinimide residue (or its ring-opened derivative) left on the substituted-in Cys of VH CDR2 after cleavage of the linker

IL-2 secretion by SEB-stimulated PBMC (HTRF): ~3 fold
B2: de-prodrugged Antibody B1 (antibody, human IgG1, kappa, V domains shown)
VH: B1 VH with C57N
VL: not shown
modifications: succinimide residue (or its ring-opened derivative) left on Cys 28 of SEQ ID NO:10 after cleavage of the linker

IL-2 secretion by SEB-stimulated PBMC (HTRF): ~3 fold
B3: de-prodrugged Antibody D1 (antibody, human IgG1, kappa, V domains shown)
VH: B1 VH with C57N
VL: not shown
modifications: succinimide residue (or its ring-opened derivative) left on Cys 53 of SEQ ID NO:10 after cleavage of the linker

IL-2 secretion by SEB-stimulated PBMC (HTRF): ~3 fold
B4: de-prodrugged Antibody E1 (antibody, human IgG1, kappa, V domains shown)
VH: B1 VH with C57N
VL: not shown
modifications: succinimide residue (or its ring-opened derivative) left on Cys 57 of SEQ ID NO:10 after cleavage of the linker

IL-2 secretion by SEB-stimulated PBMC (HTRF): ~3 fold
B5: de-prodrugged Antibody C1 (antibody, human IgG1, kappa, V domains shown)
VH: B1 VH with C57N
VL: not shown
modifications: succinimide residue (or its ring-opened derivative) left on Cys 31 of SEQ ID NO:10 after cleavage of the linker
